Target: T1, complement factor H, homozygous Tyr-402/Val-62 allotype (human), P08603
T1 chain: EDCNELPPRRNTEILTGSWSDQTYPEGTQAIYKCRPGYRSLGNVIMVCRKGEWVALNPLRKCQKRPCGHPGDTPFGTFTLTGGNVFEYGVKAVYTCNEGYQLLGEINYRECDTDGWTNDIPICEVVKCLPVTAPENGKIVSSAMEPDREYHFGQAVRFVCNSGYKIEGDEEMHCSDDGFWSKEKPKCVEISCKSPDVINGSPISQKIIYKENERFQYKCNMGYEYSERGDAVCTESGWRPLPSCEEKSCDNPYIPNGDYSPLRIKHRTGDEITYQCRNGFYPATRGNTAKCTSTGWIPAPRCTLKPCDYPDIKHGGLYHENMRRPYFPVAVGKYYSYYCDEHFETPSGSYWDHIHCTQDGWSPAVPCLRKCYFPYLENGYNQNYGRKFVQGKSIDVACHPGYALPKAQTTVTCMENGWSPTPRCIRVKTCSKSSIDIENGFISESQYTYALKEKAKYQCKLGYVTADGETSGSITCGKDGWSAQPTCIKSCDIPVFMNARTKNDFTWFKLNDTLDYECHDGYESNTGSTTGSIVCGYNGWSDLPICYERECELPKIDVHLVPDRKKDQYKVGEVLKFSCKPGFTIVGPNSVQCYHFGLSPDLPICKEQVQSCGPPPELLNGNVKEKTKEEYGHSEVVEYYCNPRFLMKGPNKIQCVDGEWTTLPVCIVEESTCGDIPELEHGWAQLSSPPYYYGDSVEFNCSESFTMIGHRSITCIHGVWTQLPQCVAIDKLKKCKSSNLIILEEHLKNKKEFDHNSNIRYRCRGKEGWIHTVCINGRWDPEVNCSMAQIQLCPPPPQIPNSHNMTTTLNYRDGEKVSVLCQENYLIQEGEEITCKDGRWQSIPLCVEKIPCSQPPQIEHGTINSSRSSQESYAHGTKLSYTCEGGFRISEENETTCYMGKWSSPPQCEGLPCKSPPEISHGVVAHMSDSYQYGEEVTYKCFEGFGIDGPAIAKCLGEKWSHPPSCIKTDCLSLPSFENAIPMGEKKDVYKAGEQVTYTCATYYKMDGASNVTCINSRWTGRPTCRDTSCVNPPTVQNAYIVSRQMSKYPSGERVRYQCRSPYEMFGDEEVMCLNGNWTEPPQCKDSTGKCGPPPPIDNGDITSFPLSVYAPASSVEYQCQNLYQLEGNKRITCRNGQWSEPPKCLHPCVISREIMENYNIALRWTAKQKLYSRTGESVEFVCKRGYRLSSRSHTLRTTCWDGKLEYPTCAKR
Assay: SPR
Settings: natural protein, eight biantennary disialylated N-glycans, sites as printed: Asn-511, Asn-700, Asn-784, Asn-804, Asn-864, Asn-892, Asn-1011, Asn-1077, remark: other sources report otherwise

B1: complement factor H, homozygous Tyr-402/Val-62 allotype, P08603 19-1231 (protein)
chain: EDCNELPPRRNTEILTGSWSDQTYPEGTQAIYKCRPGYRSLGNVIMVCRKGEWVALNPLRKCQKRPCGHPGDTPFGTFTLTGGNVFEYGVKAVYTCNEGYQLLGEINYRECDTDGWTNDIPICEVVKCLPVTAPENGKIVSSAMEPDREYHFGQAVRFVCNSGYKIEGDEEMHCSDDGFWSKEKPKCVEISCKSPDVINGSPISQKIIYKENERFQYKCNMGYEYSERGDAVCTESGWRPLPSCEEKSCDNPYIPNGDYSPLRIKHRTGDEITYQCRNGFYPATRGNTAKCTSTGWIPAPRCTLKPCDYPDIKHGGLYHENMRRPYFPVAVGKYYSYYCDEHFETPSGSYWDHIHCTQDGWSPAVPCLRKCYFPYLENGYNQNYGRKFVQGKSIDVACHPGYALPKAQTTVTCMENGWSPTPRCIRVKTCSKSSIDIENGFISESQYTYALKEKAKYQCKLGYVTADGETSGSITCGKDGWSAQPTCIKSCDIPVFMNARTKNDFTWFKLNDTLDYECHDGYESNTGSTTGSIVCGYNGWSDLPICYERECELPKIDVHLVPDRKKDQYKVGEVLKFSCKPGFTIVGPNSVQCYHFGLSPDLPICKEQVQSCGPPPELLNGNVKEKTKEEYGHSEVVEYYCNPRFLMKGPNKIQCVDGEWTTLPVCIVEESTCGDIPELEHGWAQLSSPPYYYGDSVEFNCSESFTMIGHRSITCIHGVWTQLPQCVAIDKLKKCKSSNLIILEEHLKNKKEFDHNSNIRYRCRGKEGWIHTVCINGRWDPEVNCSMAQIQLCPPPPQIPNSHNMTTTLNYRDGEKVSVLCQENYLIQEGEEITCKDGRWQSIPLCVEKIPCSQPPQIEHGTINSSRSSQESYAHGTKLSYTCEGGFRISEENETTCYMGKWSSPPQCEGLPCKSPPEISHGVVAHMSDSYQYGEEVTYKCFEGFGIDGPAIAKCLGEKWSHPPSCIKTDCLSLPSFENAIPMGEKKDVYKAGEQVTYTCATYYKMDGASNVTCINSRWTGRPTCRDTSCVNPPTVQNAYIVSRQMSKYPSGERVRYQCRSPYEMFGDEEVMCLNGNWTEPPQCKDSTGKCGPPPPIDNGDITSFPLSVYAPASSVEYQCQNLYQLEGNKRITCRNGQWSEPPKCLHPCVISREIMENYNIALRWTAKQKLYSRTGESVEFVCKRGYRLSSRSHTLRTTCWDGKLEYPTCAKR
- Kd: > 40 µM

From PMC6222095
